Article PMC10790359, “System for Self-excited Targeted Photodynamic Therapy Based on the Multimodal Protein DARP-NanoLuc-SOPP3” (Acta Naturae, 2023)

Biological target: T1, HER2 (human epidermal growth factor receptor type II) (human (endogenous in SKOV3.ip1), UniProt P04626 23-1255)
T1 construct: HER2, human epidermal growth factor receptor type II, on the surface of human ovarian adenocarcinoma SKOV3.ip1 / SKOV3.ip1-Kat cells; also called HER2 receptor; HER2 tumor marker; source: endogenous, on SKOV3.ip1 and SKOV3.ip1-Kat cells (HER2 overexpression)
Test: flow cytometry on cells; cells incubated with 300 nM DARP-NanoLuc-SOPP3-AF488 conjugate in complete growth medium for 10 min at 37°C, washed thrice with phosphate-buffered saline; HER2-positive SKOV3.ip1-Kat cells; control: unlabelled cells
Settings: one partner purified

B1: DARP-NanoLuc-SOPP3 (designed binder)
chain: MDLGKKLLEAARAGQDDEVRILMANGADVNAHDFYGITPLHLAANFGHLEIVEVLLKHGADVNAFDYDNTPLHLAADAGHLEIVEVLLKYGADVNASDRDGHTPLHLAAREGHLEIVEVLLKNGADVNAQDKFGKTAFDISIDNGNEDLAEILQEFPKPSTPPGSSGGAMVFTLEDFVGDWRQTAGYNLDQVLEQGGVSSLFQNLGVSVTPIQRIVLSGENGLKIDIHVIIPYEGLSGDQMGQIEKIFKVVYPVDDHHFKVILHYGTLVIDGVTPNMIDYFGRPYEGIAVFDGKKITVTGTLWNGNKIIDERLINPDGSLLFRVTINGVTGWRLCERILAGGGGSGSEKSFVITDPRLPDNPIIFASDGFLELTEYSREEILGRNGRFLQGPETDQATVQKIRDAIRDQREITVQLINYTKSGKKFLNLLNLQPIRDQKGELQAFIGVQVDGKLAAALE
modifications: conjugated with N-hydroxysuccinimide esters of dyes (AF488 or Cy5.5) for flow cytometry and confocal microscopy; legends and results call the green conjugate FITC; labelled residues not stated
notes: DARPin_9-29, HER2-specific targeting module; NanoLuc luciferase (engineered), amplified from plasmid pNL1.1.CMV (Promega); SOPP3 phototoxic flavoprotein (a miniSOG analogue, engineered), amplified from pET24-SOPP3; vector-derived residues between SOPP3 and the C-terminal HHHHHH of the printed chain; cytotoxicity assays used the protein without a dye; also called DARPin-NanoLuc-SOPP3; …
  fold shift in the median fluorescence of conjugate-treated cells compared to the control: ~100 fold
